How the values were obtained:
[1] = molecular target: T1, human GPC3-his tag protein (human, UniProt P51654 25-559, limits assumed); assay: SPR Biacore 8K, mAb captured on CM5, single dose GPC3-his
T1 construct: recombinant soluble antigen used as analyte in all Biacore runs; also called recombinant GPC3 protein; rhGPC3-His; not shown: His tag
Procedure: The binding of mouse monoclonal antibodies to human GPC3-his was tested with Biacore using a capture method. The antibodies were captured using CM5 sensor chip. A single dose of human GPC3-his tag protein was injected over captured antibody for 2 mins at a flow rate of 30 μl/min. The antigen was allowed to dissociate for 360 s. All the experiments were carried out on a Biacore 8K. Data analysis was carried out using Biacore 8K evaluation software.

human GPC3 on cells = molecular target: T2, human GPC3 on cells (human, UniProt P51654 25-554); assay: FACS, GPC3-CHOK1 cells
T2 construct: whole, on cells; over-expressed on CHOK1 cells or endogenous on HEPG2, Hep3B and Huh-7 hepatocellular carcinoma cells; the cell line is named under assay; also called GPC3-CHOK1 cells; human GPC3 over-expressed CHOK1 cells
Procedure: Briefly, GPC3-CHOK1 cells were firstly incubated with Fc blocking reagent at 4° C. for 15 mins. Cells were washed by FACS buffer and divided to each well with 3-fold serially diluted 52H5D3B8, 52H5D3B8-1 #, 52H5D3B8-2 #, 52H5D3B8-3 #, 52H5D3B8-4 #, 52H5D3B8-5 #, 52H5D3B8-6 #, 52H5D3B8-7 #, 52H5D3B8-8 #, 52H5D3B8-9 #, 52H5D3B8-10 #, 52H5D3B8-11 #, 52H5D3B8-12 #, 52H5D3B8-13 #, 52H5D3B8-14 # and 52H5D3B8-15# chimeric mAbs starting at 30 μg/mL at 4° C. for 60 mins. Cells were washed by FACS buffer and fixed with 2% PFA at RT for 15 mins. […] Samples were washed twice with FACS buffer.

[2] = molecular target: T1, human GPC3-his tag protein; assay: SPR Biacore 8K, mAb captured, one or two doses GPC3-his
Procedure: The binding of the optimized antibodies of 52H5D3B8 mAb to human GPC3-his was tested with Biacore using a capture method. A single dose or two doses of human GPC3-his tag protein was injected over captured antibody. All the experiments were carried out on a Biacore 8K. Data analysis was carried out using Biacore 8K evaluation software.

Row | Binder | Kd [1] | koff [1] | kon [1] | EC50 (human GPC3 on cells) | Kd [2] | koff [2] | kon [2]
1 | 172B4E9 mouse monoclonal antibody (antibody, V domains shown, mouse hybridoma antibody) VH: QVQLQQSGAELVRPGASVTLSCKASGYTFTDYEIHWVKQTPVHGLEWIGAIDPATGDTAYTQKFKGKAILTADTSSNTVYMELRGLTSEDSAVHFCTRFYSYAYWGQGTLVTVSA VL: DVVMTQTPLSLPVSLGDQASISCRSSQSLVHTNGHTYLQWYLQKSGQSPRLLIFKVSNRFSGVPDRFSGSGSGTDFKLKISRVEAEDLGVYFCSQSTHVPYTFGGGTKLEIK | 0.446 nM | 9.01e-05 s⁻¹ | 202000 M⁻¹ s⁻¹ |  |  |  | 
2 | 18C1D9 mouse monoclonal antibody (antibody, V domains shown, mouse hybridoma antibody) VH: QVQLQQSGAELVRPGASVTLSCKASGYTFSDYEMHWVKQTPVHGLEWIGAIDPETGGTAYNQKFKGKATLTADKSSSTAYMELRSLTSEDSAVYYCTRYYSYAYWGQGTLVTVSA VL: DVVMTQSPLSLPVSLGDQASISCRSRQSLVHSNGNTYLQWYLQKPGQSPKLLIYKVSNRFSGVPDRFSGSGSGTDFTLKISRVEAEDLGVYFCFQSIHVPYTFGGGTKLEKK | 1.57 nM | 0.000412 s⁻¹ | 262000 M⁻¹ s⁻¹ |  |  |  | 
3 | 52H5D3B8 mouse monoclonal antibody (antibody, V domains shown, mouse hybridoma antibody) VH: QVQLQQSGAELVRPGASVKLSCKALGYTFTDYEMHWVKQTPVHGLEWIGAIHPGSGGTAYNQKFKGKATLTADKFSSTGYMELSSLTSEDSAVYYCTRFYSYAYWGQGTLVTVSA VL: DVVMTQTPLSLPVSLGDQASISCRSSQSLVHSNGNTYLQWYLQKPGQSPKLLIYKVSNRFSGVPDRFSGSGSGTDFILKISRVEAEDLGVYFCSQSIHVPYTFGGGTKLEIK | 1.39 nM | 0.000317 s⁻¹ | 228000 M⁻¹ s⁻¹ |  |  |  | 
4 | 52H5D3B8-2# chimeric mAb (antibody, V domains shown, CDR3 mutant of the 52H5D3B8 chimeric mAb (human IgG1)) VH: QVQLQQSGAELVRPGASVKLSCKALGYTFTDYEMHWVKQTPVHGLEWIGAIHPGSGGTAYNQKFKGKATLTADKFSSTGYMELSSLTSEDSAVYYCTRFYSFAYWGQGTLVTVSA VL: DVVMTQTPLSLPVSLGDQASISCRSSQSLVHSNGNTYLQWYLQKPGQSPKLLIYKVSNRFSGVPDRFSGSGSGTDFILKISRVEAEDLGVYFCSQSIHVPYTFGGGTKLEIK |  |  |  | 0.149 µg/mL | 5.31 nM | 0.00121 s⁻¹ | 228000 M⁻¹ s⁻¹
5 | 52H5D3B8-5# chimeric mAb (antibody, V domains shown, CDR3 mutant of the 52H5D3B8 chimeric mAb (human IgG1)) VH: QVQLQQSGAELVRPGASVKLSCKALGYTFTDYEMHWVKQTPVHGLEWIGAIHPGSGGTAYNQKFKGKATLTADKFSSTGYMELSSLTSEDSAVYYCTRYYSFAYWGQGTLVTVSA VL: DVVMTQTPLSLPVSLGDQASISCRSSQSLVHSNGNTYLQWYLQKPGQSPKLLIYKVSNRFSGVPDRFSGSGSGTDFILKISRVEAEDLGVYFCSQSIHVPYTFGGGTKLEIK |  |  |  | 0.405 µg/mL | 4.12 nM | 0.000412 s⁻¹ | 100000 M⁻¹ s⁻¹
6 | 52H5D3B8-4# chimeric mAb (antibody, V domains shown, CDR3 mutant of the 52H5D3B8 chimeric mAb (human IgG1)) VH: QVQLQQSGAELVRPGASVKLSCKALGYTFTDYEMHWVKQTPVHGLEWIGAIHPGSGGTAYNQKFKGKATLTADKFSSTGYMELSSLTSEDSAVYYCTRFYSYAYWGQGTLVTVSA VL: DVVMTQTPLSLPVSLGDQASISCRSSQSLVHSNGNTYLQWYLQKPGQSPKLLIYKVSNRFSGVPDRFSGSGSGTDFILKISRVEAEDLGVYFCSQSTHVPYTFGGGTKLEIK |  |  |  | 0.0986 µg/mL | 1.72 nM | 0.000578 s⁻¹ | 335000 M⁻¹ s⁻¹
7 | 52H5D3B8-3# chimeric mAb (antibody, V domains shown, CDR3 mutant of the 52H5D3B8 chimeric mAb (human IgG1)) VH: QVQLQQSGAELVRPGASVKLSCKALGYTFTDYEMHWVKQTPVHGLEWIGAIHPGSGGTAYNQKFKGKATLTADKFSSTGYMELSSLTSEDSAVYYCTRFYSYAYWGQGTLVTVSA VL: DVVMTQTPLSLPVSLGDQASISCRSSQSLVHSNGNTYLQWYLQKPGQSPKLLIYKVSNRFSGVPDRFSGSGSGTDFILKISRVEAEDLGVYFCFQSIHVPYTFGGGTKLEIK |  |  |  | 0.0869 µg/mL | 1.06 nM | 0.000556 s⁻¹ | 525000 M⁻¹ s⁻¹
8 | 52H5D3B8-1# chimeric mAb (antibody, V domains shown, CDR3 mutant of the 52H5D3B8 chimeric mAb (human IgG1)) VH: QVQLQQSGAELVRPGASVKLSCKALGYTFTDYEMHWVKQTPVHGLEWIGAIHPGSGGTAYNQKFKGKATLTADKFSSTGYMELSSLTSEDSAVYYCTRYYSYAYWGQGTLVTVSA VL: DVVMTQTPLSLPVSLGDQASISCRSSQSLVHSNGNTYLQWYLQKPGQSPKLLIYKVSNRFSGVPDRFSGSGSGTDFILKISRVEAEDLGVYFCSQSIHVPYTFGGGTKLEIK |  |  |  | 0.104 µg/mL | 0.74 nM | 0.000288 s⁻¹ | 390000 M⁻¹ s⁻¹

The remaining lines, values ahead:

Row | Kd [1] | koff [1] | kon [1] | EC50 (human GPC3 on cells) | Kd [2] | koff [2] | kon [2] | Binder
9 | 0.881 nM | 0.000162 s⁻¹ | 184000 M⁻¹ s⁻¹ |  |  |  |  | 152E9F7 mouse monoclonal antibody (antibody, V domains shown, mouse hybridoma antibody) VH: QVQLQQSGAELVRPGASVTLSCKASGYTFTDYEIHWVKQTPVHGLEWIGAIDPETGDTAYTQKFKGKAILTADKSSNTVYMELRSLTSEDSAVYYCTRFYSYAYWGQGTLVTVSA VL: DVVMTQTPLSLPVSLGDQASISCRSSQSLVHTNGHTYLQWYLQKSGQSPKLLIYKVSNRFSGVPDRFSGSGSGTDFTLKISRVEAEDLGVYFCSQSTHVPYTFGGGTKLEIK
10 | 1.22 nM | 0.000199 s⁻¹ | 162000 M⁻¹ s⁻¹ |  |  |  |  | 171F9C5 mouse monoclonal antibody (antibody, V domains shown, mouse hybridoma antibody) VH: QVQLQQSGAELVRPGASVTLSCKASGYTFTDYEIHWVKQTPVHGLEWIGAIDPETDNTAYSQKFKGKAILTADKSSSTAYMELRSLTSEDSAVYYCTRYYSYAYWGQGTLVTVSA VL: DVVMTQTPLSLPVSLGDQASISCRSSQSPVHRNGNTYLHWYLQKPGQSPKLLIFKVSNRFSGVPDRFSGSGSGTDFTLKISRVAAEDLGVYFCSQTTHVPYTFGGGTKLEIK
11 |  |  |  | 0.247 µg/mL | 12.9 nM | 0.00216 s⁻¹ | 167000 M⁻¹ s⁻¹ | 52H5D3B8-9# chimeric mAb (antibody, V domains shown, CDR3 mutant of the 52H5D3B8 chimeric mAb (human IgG1)) VH: QVQLQQSGAELVRPGASVKLSCKALGYTFTDYEMHWVKQTPVHGLEWIGAIHPGSGGTAYNQKFKGKATLTADKFSSTGYMELSSLTSEDSAVYYCTRFYSFAYWGQGTLVTVSA VL: DVVMTQTPLSLPVSLGDQASISCRSSQSLVHSNGNTYLQWYLQKPGQSPKLLIYKVSNRFSGVPDRFSGSGSGTDFILKISRVEAEDLGVYFCSQSTHVPYTFGGGTKLEIK
12 |  |  |  | 0.0919 µg/mL | 2.03 nM | 0.001 s⁻¹ | 494000 M⁻¹ s⁻¹ | 52H5D3B8-8# chimeric mAb (antibody, V domains shown, CDR3 mutant of the 52H5D3B8 chimeric mAb (human IgG1)) VH: QVQLQQSGAELVRPGASVKLSCKALGYTFTDYEMHWVKQTPVHGLEWIGAIHPGSGGTAYNQKFKGKATLTADKFSSTGYMELSSLTSEDSAVYYCTRFYSFAYWGQGTLVTVSA VL: DVVMTQTPLSLPVSLGDQASISCRSSQSLVHSNGNTYLQWYLQKPGQSPKLLIYKVSNRFSGVPDRFSGSGSGTDFILKISRVEAEDLGVYFCFQSIHVPYTFGGGTKLEIK
13 |  |  |  | 0.232 µg/mL | 3.97 nM | 0.000617 s⁻¹ | 155000 M⁻¹ s⁻¹ | 52H5D3B8-7# chimeric mAb (antibody, V domains shown, CDR3 mutant of the 52H5D3B8 chimeric mAb (human IgG1)) VH: QVQLQQSGAELVRPGASVKLSCKALGYTFTDYEMHWVKQTPVHGLEWIGAIHPGSGGTAYNQKFKGKATLTADKFSSTGYMELSSLTSEDSAVYYCTRYYSYAYWGQGTLVTVSA VL: DVVMTQTPLSLPVSLGDQASISCRSSQSLVHSNGNTYLQWYLQKPGQSPKLLIYKVSNRFSGVPDRFSGSGSGTDFILKISRVEAEDLGVYFCSQSTHVPYTFGGGTKLEIK
14 | 0.755 nM | 0.000169 s⁻¹ | 223000 M⁻¹ s⁻¹ |  |  |  |  | 163E7D12 mouse monoclonal antibody (antibody, V domains shown, mouse hybridoma antibody) VH: QVQLQQSGAELVRPGASVTLSCKASGYTFTDYEMHWVKQTPVHGLEWIGAIGPETGSTAYNQRFKGKAIVTADKSSSTAYMELRSLTSEDSAVYYCTRYYSFAYWGQGTLVTVSA VL: DVVMTQTPLSLPVSLGGQASISCRSSQSLVHSNGNTYLQWYLQKPGQSPKLLIFKVSNRFSGVPDRFSGSGSGTDFTLKISRVEAEDLGVYFCFQSIHVPYTFGGGTKLEIK
15 |  |  |  | 0.176 µg/mL | 4.05 nM | 0.00118 s⁻¹ | 291000 M⁻¹ s⁻¹ | 52H5D3B8-10# chimeric mAb (antibody, V domains shown, CDR3 mutant of the 52H5D3B8 chimeric mAb (human IgG1)) VH: QVQLQQSGAELVRPGASVKLSCKALGYTFTDYEMHWVKQTPVHGLEWIGAIHPGSGGTAYNQKFKGKATLTADKFSSTGYMELSSLTSEDSAVYYCTRFYSYAYWGQGTLVTVSA VL: DVVMTQTPLSLPVSLGDQASISCRSSQSLVHSNGNTYLQWYLQKPGQSPKLLIYKVSNRFSGVPDRFSGSGSGTDFILKISRVEAEDLGVYFCFQSTHVPYTFGGGTKLEIK
16 |  |  |  | 0.104 µg/mL | 10.9 nM | 0.00354 s⁻¹ | 326000 M⁻¹ s⁻¹ | 52H5D3B8-11# chimeric mAb (antibody, V domains shown, CDR3 mutant of the 52H5D3B8 chimeric mAb (human IgG1)) VH: QVQLQQSGAELVRPGASVKLSCKALGYTFTDYEMHWVKQTPVHGLEWIGAIHPGSGGTAYNQKFKGKATLTADKFSSTGYMELSSLTSEDSAVYYCTRFYSFAYWGQGTLVTVSA VL: DVVMTQTPLSLPVSLGDQASISCRSSQSLVHSNGNTYLQWYLQKPGQSPKLLIYKVSNRFSGVPDRFSGSGSGTDFILKISRVEAEDLGVYFCFQSTHVPYTFGGGTKLEIK
